The nature of data set [1]: Robotic quantitative screen of E. coli lysates: luminescence activity (Li), expression/specific activity. The format is biochemical. The conditions noted are these: relative value. The protocol: A plate containing cells is retrieved from the carousel and placed on the shaker for 3-5 minutes to fully mix the cells. The cells tend to settle from solution upon standing.
To measure Optical Density (O.D.), the plate is moved from the shaker to the locator near the luminometer; the lid is removed and the plate placed into the luminometer. The O.D. is measured using a 620 nm filter.
To prepare a cell lysate, the plate of cells is first retrieved from the refrigerator and mixed on the shaker to resuspend the cells. A new plate from the carousel without a lid is placed in the reagent dispenser and 20 μl of Buffer A is added to each well. This is placed in the pipetting station.
The plate is then moved to the reagent dispenser to add 175 μl of Buffer B, and then mixed on the shaker for about 15 minutes or more. The combination of the freeze/thaw and Buffer B will cause the cells to lyse.
(§1) One daughter plate is placed in the luminometer and the 1X assay method is used. After the assay, the plate is placed in the ambient incubator, and the second daughter plate is placed in the luminometer. For the second plate, the 0.02X assay method is used. This plate is discarded, and the first plate is returned from the incubator to the luminometer. The repeat assay method is used (i.e., no reagent is injected). Afterwards, the plate is again returned to the ambient incubator.
1X Assay reagent: 5 μM Luciferin; 175 μM ATP; 20 mM Tricine, pH 8.0; 0.1 mM EDTA
(§2) The following criteria were used for screening purposes. The temperature chosen for the enzyme stability parameter was such that the parent enzyme would decay 100 to 1000 fold over 10 hours (see Table 1). Criteria 1 is achieved manually; data for criteria 2-6 is generated by robotic analysis. For all criteria, the maximum value as described is selected. • 1. In vivo screen. The brightest clones are selected at a given temperature. • 2. Expression/specific activity. The value for normalized luminescence is calculated as the ratio of luminescence to optical density. The value is reported as the ratio with the reference value. • 3. Enzyme stability. Measurements of normalized luminescence of the incubated samples (3 taken over about 15 hours) are fitted to In(L)=In(L0)−(t/τ), where L is normalized luminescence and t is time. τ is a measure of the enzyme stability. The value is reported as the ratio with the reference value, and the correlation coefficients are calculated. • 4. Substrate binding. Measurements of normalized luminescence with 1X and 0.02X are taken at the initial reading set, and 1X and 0.06X are taken at the 5 hour set. The ratio of the 0.02X:1X and 0.06X:1X gives the relative luminescence at 0.02X and 0.06X concentrations. These values, along with the relative luminescence at 1X (i.e., 1), are fitted to a Lineweaver-Burk plot to yield the Km:app,total for the substrates ATP, luciferin, and CoA. The values are reported as the inverse ratio with the reference value, and the correlation coefficients are calculated. • 5. Signal stability. The luminescence of the initial IX luminescent reactions are re-measured 3 additional times over about 15 hours. These values are fitted to In(L)=In(L0)−(t/τ) and the integral over t (15 hours) is calculated. Signal stability is then calculated as S=(1−int(L)/L0t)^2. The values are reported as the inverse ratio with the reference value, and the correlation coefficients are calculated. • 6. Composite fitness. The values of criteria 2 through 5 are combined into a single composite value of fitness (or commercial utility). This value is based on a judgment of the relative importance of the other criteria. This judgment is given below:
Normalize luminescence data: For each measurement of luminescence in the eight daughter plates, the normalized luminescence is calculated by dividing the relative light units by the optical density of the original plate. […]

Data set [2] is described as follows: Robotic quantitative screen of E. coli lysates: enzyme stability (tau) at elevated temperature. The format is physicochemical. The conditions noted are these: relative value. The protocol:
Two white assay plates (Labsystems #9502887) are obtained from the plate feeder and placed in the pipetter. The incubation plate from the shaker is placed in the pipetter, and the lid removed and placed on the nearby locator. Two daughter plates are made using the pipetting procedure (see “Create Pair of Daughter Plates from Incubation Plate”). Afterwards, the lid is replaced on the parent plate, and the plate is placed in a high temperature incubator. [ranging from 31° C. to about 65° C. depending on the clone.]
To begin the second set of measurements, the plate from the high temperature incubator is placed in the shaker to mix.
In the final set of measurements, the plate from the high temperature incubator is again placed in the shaker to mix.
as §2
Calculate enzyme stability (τ): For each sample, use linear regression to fit In(L1x)=In(L0)−(t/τ) using the three luminescence measurements with 1X substrate concentrations (Plates 1, 5, 8). Also calculate the regression coefficient.
Calculate the reference-normalized values: For the criteria parameter of each sample, a reference-normalized value is determined by calculating the ratio or inverse ratio with the respective reference value. The reference-normalized values are Li/Lir, τ/τr, Kmr/Km:app,total, and Sr/S, where reference values are calculated from the equations of the appropriate reference surface.
“Enzyme stability” was determined by the rate of activity loss from cell lysates over 10 hours. In successive rounds of evolution the incubation temperature of the lysates was increased.
Robotic Automation: Robotic automation was used in the quantitative screens to accurately perform the large number of required quantitative assays on the cultured cells. […]

The nature of data set [3]: Robotic quantitative screen of E. coli lysates: signal stability (S), sustained enzymatic turnover. It counts as biochemical. The conditions noted are these: inverse ratio with reference. The protocol: as §1
The plate in the ambient incubator is returned to the luminometer and the repeat assay method is again used. The plate is returned afterwards to the ambient incubator.
The plate in the ambient incubator is returned to the luminometer and the repeat assay method is again used. The plate is discarded afterwards.
as §2
Calculate signal stability (S): For each sample, use linear regression to fit In(L)=In(L0)[…] using the four luminescence measurements of the initial microplate with 1X substrate concentrations (Plates 1, 3, 4, and 7). Also calculate the regression coefficient. From the calculated values of T and L0, calculate the integral of luminescence by int(L)=τL0(1−exp(−tf/τ)), where tf is the average time of the last measurement (e.g., 15 hours). The signal stability is calculated as S=(1−int(L)/Litf)^2, where Li is the initial measurement of normalized luminescence with 1× substrate concentration (Plate 1).
[Note: To correct for evaporation, an equation S=(1+K−int(L)/Litf)^2, may be used where 1/K=2(relative change of liquid volume at tf).]
Calculate the reference-normalized values: For the criteria parameter of each sample, a reference-normalized value is determined by calculating the ratio or inverse ratio with the respective reference value. […]

Setting [4] is: Control is Luc71-5D4 at 60° C. (=1).
Setting [5] is: Control is Luc84-3A6 at 64° C. (=1).
Setting [6] is: Control is Luc46-2H3 at 54° C. (=1).

B1: 78-1e1-: mutant luciferase, SEQ ID NO:21 (protein)
chain: MADKNILYGPEPFYPLADGTAGEQMFDALSRYADIPGCIALTNAHTKENVLYEEFLKLSCRLAESFKKYGLKQNDTIAVCSENGLQYFLPVIASLYLGIIAAPVSDKYIERELIHSLGIVKPRIIFCSKNTFQKVLNVKSKLKYVETIIILDLNEDLGGYQCLNNFISQNSDINLDVKKFKPNSFNRDDQVALVMFSSGTTGVPKGVMLTHKNIVARFSIAKDPTFGNAINPTTAILTVIPFHHGFGMMTTLGYFTCGFRVVLMHTFEEKLFLQSLQDYKVESTLLVPTLMAFLAKSALVEKYDLSHLKEIASGGAPLSKEIGEMVKKRFKLNFVRQGYGLTETTSAVLITPKXXARPGSTGKIVPFHAVKVVDPTTGKILGPNEPGELYFKGAMIMKGYYNNEEATKAIIDKDGWLRSGDIAYYDNDGHFYIVDRLKSLIKYKGYQVAPAEIEGILLQHPYIVDAGVTGIPDEAAGELPAAGVVVQTGKYLNEQIVQNFVSSQVSTAKWLRGGVKFLDEIPKGSTGKIDRKVLRQMFEKHTNG
modifications: not fully specified; X: residue not identified in the source
In the case of B1, the “Luminescence (Li)” value in data set [1] (setting [4]) was 0.54. The “Enzyme stability (tau)” value in data set [2] (setting [4]) is reported as 8.9. For the same molecule, the “Signal stability (S)” value in data set [3] (setting [4]) is on record as 0.9877.

B2: 78-2b4: mutant luciferase, SEQ ID NO:22 (protein)
chain: MADKNILYGPEPFYPLADGTAGEQMFDALSRYADIPGCIALTNAHTKENVLYEEFLKLSCRLAESFKKYGLKQNDTIAVCSENGLQFFLPVIASLYLGIIAAPVSDKYVERELIHSLGIVKPRIIFCSKNTFQKVLNVKSKLKYVETIIILDLNEDLGGYQCLNNFISQNSDSNLDVKKFKPNSFNRDDQVALVMFSSGTTGVPKGVMLTHKNIVARFSLAKDPTFGNAINPTTAILTVIPFHHGFGMMTTLGYFTCGFRVVLMHTFEEKLFLQSLQDYKVESTLLVPTLMAFLAKSALVEKYDLSHLKEIASGGAPLSKEIGEMVKKRFKLNFVRQGYGLTETTSAVLITPKXXARPGSTGKIVPFHAVKVVDPTTGKILGPNETGELYFKGAMIMKGYYNNEEATKAIIDKDGWLRSGDIAYYDNDGHFYIVDRLKSLIKYKGYQVAPAEIEGILLQHPYIVDAGVTGIPDEAAGELPAAGVVVQTGKYLNEQIVQNFVSSQVSTAKWLRGGVKFLDEIPKGSTGKIDRKVLRQMFEKHTNG
modifications: not fully specified; X: residue not identified in the source
With B2, in data set [1] (setting [4]), the “Luminescence (Li)” value turned out to be 1.97. Besides, the “Enzyme stability (tau)” value in data set [2] (setting [4]) worked out at 1.36. In data set [3] (setting [4]), the “Signal stability (S)” value was found to be 1.0094.

B3: 85(86)-4f12: mutant luciferase, SEQ ID NO:23 (protein)
chain: MADKNILYGPEPFYPLADGTAGEQMFDALSRYADIPGCIALTNAHTKENVLYEEFLKLSCRLAESFKKYGLKQNDTIAVCSENGLQFFLPVIASLYLGIIVAPVNDKYIERELIHSLGIVKPRIIFCSKNTFQKVLNVKSKLKSVETIIILDLNEDLGGYQCLNNFISQNSDINLDVKKFKPYSFNRDDQVALIMFSSGTTGLPKGVMLTHKNIVARFSLAKDPTFGNAINPTTAILTVIPFHHGFGMMTTLGYFTCGFRVVLMHTFEEKLFLQSLQDYKVESTLLVPTLMAFLAKSALVEKYDLSHLKEIASGGAPLSKEIGEMVKKRFKLNFVRQGYGLTETTSAVLITPKXXARPGSTGKIVPFHAVKVVDPTTGKILGPNEPGELYFKGPMIMKGYYNNEEATKAIIDNDGWLRSGDIAYYDNDGHFYIVDRLKSLIKYKGYQVAPAEIEGILLQHPYIVDAGVTGIPDEAAGELPAAGVVVQTGKYLNEQIVQDFVSSQVSTAKWLRGGVKFLDEIPKGSTGKIDRKVLRQMFEKHTNG
modifications: not fully specified; X: residue not identified in the source
B3: the “Luminescence (Li)” value in data set [1] (setting [5]) is on record as 1.1167. Moreover, the “Enzyme stability (tau)” value in data set [2] (setting [5]) stood at 4.7851. For the same molecule, in data set [3] (setting [5]), the “Signal stability (S)” value was 1.0092.

B4: 49-6c10: mutant luciferase, SEQ ID NO:15 (protein)
chain: MEDKNILYGPEPFYPLADGTAGEQMFYALSRYADISGCIALTNAHTKENVLYEELLKLSCRLAESFKKYGLKQNDTIAVCSENGLQFFLPIIASLYLGIIAAPVSDKYIERELIHSLGIVKPRIIFCSKNTFQKVLNVKSKLKYVETIIILDLNEDLGGYQCLNNFISQNSDINLDVKKFKPYSFNRDDQVALVMFSSGTTGVSKGVMLTHKNIVARFSHAKDPTFGNAINPTTAILTVIPFHHGFGMMTTLGYFTCGFRVVLMHTFEEKLFLQSLQDYKVESTLLVPTLMAFFAKSALVEKYDLSHLKEIASGGAPLSKEIGEMVKKRFKLNFVRQGYGLTETTSAVLITPNNDVRPGSTGKIVPFHAVKVVDPTTGKILGPNETGELYFKGDMIMKGYYNNEEATKAIINKDGWLRSGDIAYYDNDGHFYIVDRLKSLIKYKGYQVAPAEIEGILLQHPYIVDAGVTGIPDEAAGELPAAGVVVQTGKYLNEQIVQNFVSSQVSTAKWLRGGVKFLDEIPKGSTGKIDRKVLRQMFEKHTNG
modifications: Mutant luciferase
In the case of B4, the “Luminescence (Li)” value in data set [1] (setting [6]) is 0.57. The “Enzyme stability (tau)” value in data set [2] (setting [6]) was 2.2. Moreover, the “Signal stability (S)” value in data set [3] (setting [6]) stood at 1.

B5: 49-0g12: mutant luciferase, SEQ ID NO:16 (protein)
chain: MEDKNILYGPEPFYPLADGTAGEQMFYALSRYADISGCIALTNAHTKENVLYEEFLKLSCRLAESFKKYGLKQNDTIAVCSENGLQFFLPIIASLYLGIIAAPVSDKYIERELIHSLGIVKPRIIFCSKNTFQKVLNVKSKLKYVETIIILDLNEDLGGYQCLNNFISQNSDINLDVKKFKPYSFNRDDQVALVMFSSGTTGVSKGVMLTHKNIVVRFSLAKDPTFGNAINPTTAILTVIPFHHGFGMMTTLGYFTCGFRVVLMHTFEEKLFLQSLQDYKVESTLLVPTLMAFFAKSALVEKYDLSHLKEIASGGAPLSKEIGEMVKKRFKLNFVRQGYGLTETTSAVLITPNNDVRPGSTGKIVPFHAVKVVDPTTGKILGPNETGELYFKGDMIMKGYYNNEEATKAIITKDGWLRSGDIAYYDNDGHFYIVDRLKSLIKYKGYQVAPAEIEGILLQHPYIVDAGVTGIPDEAAGELPAAGVVVQTGKYLNEQIVQNFVSSQVSTAKWLRGGVKFLDEIPKGSTGKIDRKVLRQMFEKHTNG
modifications: Mutant luciferase
As to B5, the “Luminescence (Li)” value in data set [1] (setting [6]) is reported as 1. Moreover, the “Enzyme stability (tau)” value in data set [2] (setting [6]) worked out at 1.58. The “Signal stability (S)” value in data set [3] (setting [6]) was found to be 1.08.

Source of the values: patent publication US8030017B2, “Thermostable luciferases and methods of production” (Promega Corporation, priority 1997, dated 2011).
